{"source": "paper PMC9055099", "about": "“Transcription factor CsWRKY40 regulates L-theanine hydrolysis by activating the CsPDX2.1 promoter in tea leaves during withering”", "binders": {"B1": {"name": "mutant probe (TTGACC to AAAAAA) (dsDNA)", "DNA 1": "TTTATTTAAGAAAAAAAAGTAGATAACTTT", "DNA 2": "AAAGTTATCTACTTTTTTTTCTTAAATAAA"}, "B2": {"name": "CsPDX2.1 promoter W box 2 biotin probe (dsDNA)", "DNA 1": "TTTATTTAAGAATTGACCGTAGATAACTTT", "DNA 2": "AAAGTTATCTACGGTCAATTCTTAAATAAA"}, "B3": {"name": "cold probe (W box 2) (dsDNA)", "DNA 1": "TTTATTTAAGAATTGACCGTAGATAACTTT", "DNA 2": "AAAGTTATCTACGGTCAATTCTTAAATAAA"}}, "key": {"CsWRKY40 [1]": {"target": "T1, CsWRKY40 (Camellia sinensis, UniProt A0A4S4ET85 1-292)", "T1 sequence (A0A4S4ET85 entry or part of it)": "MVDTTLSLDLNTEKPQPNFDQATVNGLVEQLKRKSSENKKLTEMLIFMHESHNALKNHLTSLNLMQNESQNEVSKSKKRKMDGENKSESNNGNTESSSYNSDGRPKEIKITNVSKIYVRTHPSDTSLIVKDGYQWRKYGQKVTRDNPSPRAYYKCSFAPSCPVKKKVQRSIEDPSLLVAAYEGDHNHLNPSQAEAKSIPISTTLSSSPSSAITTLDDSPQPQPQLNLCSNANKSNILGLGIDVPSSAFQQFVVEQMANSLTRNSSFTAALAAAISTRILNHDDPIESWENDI", "experiment": "EMSA; LightShift Chemiluminescent EMSA kit (ThermoFisher) per instructions; buffer, salt, pH and temperature not stated", "conditions": "protein: recombinant; tags: GST (pGEX-4T-1); label: 3' biotin on both strands; blunt"}, "CsWRKY40 [2]": {"target": "T1, CsWRKY40", "experiment": "competition; unlabelled competitor against biotin probe N1; shift gradually reduced with increasing cold probe; LightShift Chemiluminescent EMSA kit (ThermoFisher) per instructions; buffer, salt, pH and temperature not stated", "conditions": "protein: recombinant; tags: GST (pGEX-4T-1); blunt"}}, "data": [{"binder": "B1", "values": [{"measurement": "binding result", "setting": "CsWRKY40 [1]", "value": "no binding"}]}, {"binder": "B2", "values": [{"measurement": "binding result", "setting": "CsWRKY40 [1]", "value": "binds"}]}, {"binder": "B3", "values": [{"measurement": "binding result", "setting": "CsWRKY40 [2]", "value": "binds"}]}]}
